From paper PMC11172124 (Cells, 2024)

T1: Lamin B1 (human (endogenous in MCF10A and MDA-MB-231)), P20700
T1 chain: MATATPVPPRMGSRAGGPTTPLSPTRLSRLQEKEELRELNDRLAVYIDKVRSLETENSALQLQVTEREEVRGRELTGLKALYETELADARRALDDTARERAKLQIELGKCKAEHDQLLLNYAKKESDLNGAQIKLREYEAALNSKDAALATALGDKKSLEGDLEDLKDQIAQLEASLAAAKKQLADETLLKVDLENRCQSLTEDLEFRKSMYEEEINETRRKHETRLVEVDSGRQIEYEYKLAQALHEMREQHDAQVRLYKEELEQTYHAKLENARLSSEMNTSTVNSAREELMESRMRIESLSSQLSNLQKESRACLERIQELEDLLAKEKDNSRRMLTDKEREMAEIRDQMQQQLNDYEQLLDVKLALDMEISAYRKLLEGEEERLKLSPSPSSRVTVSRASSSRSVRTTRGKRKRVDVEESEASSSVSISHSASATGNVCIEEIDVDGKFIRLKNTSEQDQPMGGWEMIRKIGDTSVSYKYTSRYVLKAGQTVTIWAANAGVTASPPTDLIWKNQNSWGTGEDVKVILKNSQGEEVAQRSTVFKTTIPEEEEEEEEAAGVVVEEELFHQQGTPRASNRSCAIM


Columns and labels:
[1] = biological target: the molecule itself; assay: non-reducing SDS-PAGE with Western blot; MCF10A cell lysate with 20 mM N-ethylmaleimide, without β-mercaptoethanol, 4 min at 50 °C, 4–12% gradient gel; shows only disulphide-linked species
[2] = biological target: T1, Lamin B1 (human (endogenous in MCF10A …)); assay: as above; details: remark: other sources report otherwise

stoichiometry N [2]	Binder	ratio of the >140 kDa SUN2 signal to the SUN2 monomer signal [1]	stoichiometry N [1]
	SUN2 (natural protein, UniProt Q9UH99-2 1-738, looked up, SUN2, human, endogenous in MCF10A and MDA-MB-231 cells; detected as a ~80 kDa monomer; Free cysteines were alkylated with 20 mM N-ethylmaleimide when the lysate was made; Which isoform the cells express was not determined; also called SUN-domain protein SUN2) MSRRSQRLTRYSQGDDDGSSSSGGSSVAGSQSTLFKDSPLRTLKRKSSNMKRLSPAPQLGPSSDAHTSYYSESLVHESWFPPRSSLEELHGDANWGEDLRVRRRRGTGGSESSRASGLVGRKATEDFLGSSSGYSSEDDYVEDSEGRGSKVTETEPVSSFPAGYSDVDQQSSSSRLRSAVSRAGSLLWMVATSPGRLFRLLYWWAGTTWYRLTTAASLLDVFVLTRRFSSLKTFLWFLLPLLLLTCLTYGAWYFYPYGLQTFHPALVSWWAAKDSRRPDEGWEARDSSPHFQAEQRVMSRVHSLERRLEALAAEFSSNWQKEAMRLERLELRQGAPGQGGGGGLSHEDTLALLEGLVSRREAALKEDFRRETAARIQEELSALRAEHQQDSEDLFKKIVRASQESEARIQQLKSEWQSMTQESFQESSVKELRRLEDQLAGLQQELAALALKQSSVAEEVGLLPQQIQAVRDDVESQFPAWISQFLARGGGGRVGLLQREEMQAQLRELESKILTHVAEMQGKSAREAAASLSLTLQKEGVIGVTEEQVHHIVKQALQRYSEDRIGLADYALESGGASVISTRCSETYETKTALLSLFGIPLWYHSQSPRVILQPDVHPGNCWAFQGPQGFAVVRLSARIRPTAVTLEHVPKALSPNSTISSAPKDFAIFGFDEDLQQEGTLLGKFTYDQDGEPIQTFHFQAPTMATYQVVELRILTNWGHPEYTCIYRFRVHGEPAH	~1	2
2	Lamin B1, P20700 1-586 (natural protein) MATATPVPPRMGSRAGGPTTPLSPTRLSRLQEKEELRELNDRLAVYIDKVRSLETENSALQLQVTEREEVRGRELTGLKALYETELADARRALDDTARERAKLQIELGKCKAEHDQLLLNYAKKESDLNGAQIKLREYEAALNSKDAALATALGDKKSLEGDLEDLKDQIAQLEASLAAAKKQLADETLLKVDLENRCQSLTEDLEFRKSMYEEEINETRRKHETRLVEVDSGRQIEYEYKLAQALHEMREQHDAQVRLYKEELEQTYHAKLENARLSSEMNTSTVNSAREELMESRMRIESLSSQLSNLQKESRACLERIQELEDLLAKEKDNSRRMLTDKEREMAEIRDQMQQQLNDYEQLLDVKLALDMEISAYRKLLEGEEERLKLSPSPSSRVTVSRASSSRSVRTTRGKRKRVDVEESEASSSVSISHSASATGNVCIEEIDVDGKFIRLKNTSEQDQPMGGWEMIRKIGDTSVSYKYTSRYVLKAGQTVTIWAANAGVTASPPTDLIWKNQNSWGTGEDVKVILKNSQGEEVAQRSTVFKTTIPEEEEEEEEAAGVVVEEELFHQQGTPRASNRSCAIM		
